Test results published in patent US20140178332A1 (published 2014).

T1: recombinant purified human IL-12 p70 (human, UniProt P29459 23-219)
T1 sequence 1: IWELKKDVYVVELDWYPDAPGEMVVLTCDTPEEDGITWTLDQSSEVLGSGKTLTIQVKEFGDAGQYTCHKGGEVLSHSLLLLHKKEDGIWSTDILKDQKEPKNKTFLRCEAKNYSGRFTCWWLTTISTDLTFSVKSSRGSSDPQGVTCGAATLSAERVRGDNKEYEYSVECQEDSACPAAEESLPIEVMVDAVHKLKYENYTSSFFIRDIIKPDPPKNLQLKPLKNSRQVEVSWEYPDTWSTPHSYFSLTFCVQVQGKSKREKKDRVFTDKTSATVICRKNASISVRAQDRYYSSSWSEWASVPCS
T1 sequence 2: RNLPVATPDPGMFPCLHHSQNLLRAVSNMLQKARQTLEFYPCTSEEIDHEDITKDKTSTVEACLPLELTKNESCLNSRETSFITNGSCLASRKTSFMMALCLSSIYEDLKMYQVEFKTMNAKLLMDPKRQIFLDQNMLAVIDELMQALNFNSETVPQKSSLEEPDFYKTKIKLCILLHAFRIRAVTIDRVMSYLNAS


Assays:
[1] = target: T1, recombinant purified human IL-12 p70; experiment: cell-based or functional assay
[2] = target: T1, recombinant purified human IL-12 p70; experiment: SPR (Biacore) according to Example 1.1.B
Description: The BIACORE assay (Biacore, Inc, Piscataway, N.J.) determines the affinity of antibodies with kinetic measurements of on-, off-rate constants. Binding of antibodies to recombinant purified human IL-12 p70 or recombinant purified human IL-12 p40 were determined by surface plasmon resonance-based measurements with a Biacore® 3000 instrument (Biacore® AB, Uppsala, Sweden) using running HBS-EP (10 mM HEPES [pH 7.4], 150 mM NaCl, 3 mM EDTA, and 0.005% surfactant P20) at 25° C. All chemicals were obtained from Biacore® AB (Uppsala, Sweden) or otherwise from a different source as described in the text. Approximately 5000 RU of goat anti-mouse IgG, (Fcγ), fragment specific polyclonal antibody (Pierce Biotechnology Inc, Rockford, Ill.) diluted in 10 mM sodium acetate (pH 4.5) was directly immobilized across a CM5 research grade biosensor chip using a standard amine coupling kit according to manufacturer's instructions and procedures at 25 μg/ml. Unreacted moieties on the biosensor surface were blocked with ethanolamine. Modified carboxymethyl dextran surface in flowcell 2 and 4 was used as a reaction surface. Unmodified carboxymethyl dextran without goat anti-mouse IgG in flow cell 1 and 3 was used as the reference surface. For kinetic analysis, rate equations derived from the 1:1 Langmuir binding model were fitted simultaneously to association and dissociation phases of all eight injections (using global fit analysis) with the use of Biaevaluation 4.0.1 software. Purified antibodies were diluted in HEPES-buffered saline for capture across goat anti-mouse IgG specific reaction surfaces. Mouse antibodies to be captured as a ligand (25 μg/ml) were injected over reaction matrices at a flow rate of 5 μl/min. The association and dissociation rate constants, kₒₙ (unit M⁻¹ s⁻¹) and koff (unit s⁻¹) were determined under a continuous flow rate of 25 μl/min. Rate constants were derived by making kinetic binding measurements at ten different antigen concentrations ranging from 10-200 nM. The equilibrium dissociation constant (unit M) of the reaction between mouse antibodies and recombinant purified human IL-12 p70 or recombinant purified human IL-12 p40 was then calculated from the kinetic rate constants by the following formula: KD=koff/kₒₙ. Binding is recorded as a function of time and kinetic rate constants are calculated.

[3] = target: T1, recombinant purified human IL-12 p70; experiment: competition ELISA on coated human IL-12, competitor of 0.8 µg/ml biotinylated 8E1, Expt. 3
Description: (§1) MaxiSorp ELISA plates (Nalge Nunc International) were coated overnight at 4° C. with 100 μl/well of 1.0 μg/ml human IL-12 in 0.2 M sodium carbonate-bicarbonate buffer, pH 9.4, washed with Wash Buffer (PBS containing 0.1% Tween 20), and blocked for 1 hr at room temperature with 300 μl/well of SuperBlock Blocking Buffer in TBS (Pierce Chemical Company). […] As isotype controls, 100 μl/well of 100 μg/ml mouse IgG 1/κ (MuFd79) or humanized IgG1/κ (HuFd79) monoclonal antibodies in ELISA buffer was used. As a no-competitor control, 100 μl/well of ELISA Buffer was used. After incubating the plates for 1 hr at room temperature, and washing with Wash Buffer, bound antibodies were detected using 100 μl/well of 1 μg/ml HRP-conjugated streptavidin (Pierce Chemical Company) in ELISA buffer. After incubating for 1 hr at room temperature, and washing with Wash Buffer, color development was performed by adding 100 μl/well of ABTS Peroxidase Substrate/Peroxidase Solution B (KPL, Inc.). After incubating for 5 min at room temperature, color development was stopped by adding 50 μl/well of 2% oxalic acid. Absorbance was read at 415 nm.
(§2) The affinity of 8E1.4, 8E1.5 and 8E1.6 to human IL-12 was analyzed by competition ELISA as described above.

[4] = target: T1, recombinant purified human IL-12 p70; experiment: competition ELISA on coated human IL-12, competitor of 0.8 µg/ml biotinylated 8E1, Expt. 1
Description: as §1, §2

[5] = target: T1, recombinant purified human IL-12 p70; experiment: competition ELISA on coated human IL-12, competitor of 0.8 µg/ml biotinylated 8E1, Expt. 2
Description: MaxiSorp ELISA plates (Nalge Nunc International) were coated overnight at 4° C. with 100 μl/well of 1.0 μg/ml human IL-12 in 0.2 M sodium carbonate-bicarbonate buffer, pH 9.4, washed with Wash Buffer (PBS containing 0.1% Tween 20), and blocked for 1 hr at room temperature with 300 μl/well of SuperBlock Blocking Buffer in TBS (Pierce Chemical Company). After washing with Wash Buffer, a mixture of biotinylated 8E 1 ([…] final concentration) and competitor antibody (8E1 or 8E1.4 or 8E1.5 or 8E1.6) starting at 100 μg/ml final concentration and serially diluted 3-fold) in 100 μl/well of ELISA buffer was added in duplicate. As isotype controls, 100 μl/well of 100 μg/ml mouse IgG 1/κ (MuFd79) or humanized IgG1/κ (HuFd79) monoclonal antibodies in ELISA buffer was used. As a no-competitor control, 100 μl/well of ELISA Buffer was used. After incubating the plates for 1 hr at room temperature, and washing with Wash Buffer, bound antibodies were detected using 100 μl/well of 1 μg/ml HRP-conjugated streptavidin (Pierce Chemical Company) in ELISA buffer. After incubating for 1 hr at room temperature, and washing with Wash Buffer, color development was performed by adding 100 μl/well of ABTS Peroxidase Substrate/Peroxidase Solution B (KPL, Inc.). […] Absorbance was read at 415 nm.
as §2

[6] = target: T1, recombinant purified human IL-12 p70; experiment: competition ELISA on coated human IL-12, competitor of 0.8 µg/ml biotinylated 8E1, average
Description: as §1, §2

Binder | Av. IC50 (nM) huIL-12, PHA blast assay [1] [nM] | Kd [2] [nM] | koff [2] [s⁻¹] | kon [2] [M⁻¹ s⁻¹] | IC50 [3] [µg/mL] | IC50 [4] [µg/mL] | IC50 [5] [µg/mL] | IC50 [6] [µg/mL]
additional humanized anti-IL-12 antibody 8E1.4 (antibody, IgG1, V domains shown, IgG1/kappa) VH: EVQLVESGGGLVQPGGSLRLSCAASGFTFSDYGMVWVRQAPGKGLEWVASISSGSSNIYYADTVKGRFTISRDNAKNTLYLQMNSLRAEDTAVYYCARNPYWGQGTLVTVSS VL: DIQMTQSPSSLSASVGDRVTITCKASQNVGTNVAWYQQKPGKAPKGLIYSASHRYSGVPSRFSGSGSGTDFTLTISSLQPEDFATYYCQQYNSYPLTFGGGTKVEIKR | 12 | 1.3 | 0.001 | 800000 | 8.33 |  |  | 
additional humanized anti-IL-12 antibody 8E1.5 (antibody, IgG1, V domains shown, IgG1/kappa) VH: EVQLVESGGGLVQPGGSLRLSCAASGFTFSDYGMVWVRQAPGKGLEWVASISSGSSNIYYADTVKGRFTISRDNAKNTLYLQMNSLRAEDTAVYYCARNPYWGQGTLVTVSS VL: DIQMTQSPSSLSASVGDRVTITCKASQNVGTNVAWYQQKPGKAPKGLIYSASHRYSGVPDRFSGSGSGTDFTLTISSLQPEDFATYYCQQYNSYPLTFGGGTKVEIKR | 8 | 0.75 | 0.00124 | 1.6e+06 | 13.4 |  |  | 
additional humanized anti-IL-12 antibody 8E1.6 (antibody, V domains shown, IgG1/kappa, expressed in 293T/17 cells from pVg1.D.Tt (D356E L358M, L234A L235A) and pVk) VH: EVQLVESGGGLVQPGGSLRLSCAASGFTFSDYGMVWVRQAPGKGLEWVASISSGSSNIYYADTVKGRFTISRDDAKNTLYLQMNSLRAEDTAVYYCARNPYWGQGTLVTVSS VL: DIQMTQSPSSLSASVGDRVTITCKASQNVGTNVAWYQQKPGKAPKGLIYSASHRYSGVPSRFSGSGSGTDFTLTISSLQPEDFATYYCQQYNSYPLTFGGGTKVEIKR |  | 0.046 | 8e-05 | 1.7e+06 | 1.61 | 2.25 | 2.43 | 2.1
